We go through 2 molecules from article doi:10.1101/2021.04.26.441214 (bioRxiv, 2021).

Common to all, as to experiment: cryo-EM structure
In data set [1] the target is T. maritima encapsulin shell protein (wild type) (T. maritima) (UniProt Q9WZP2).
Data set [2] has the same target. This is another data set of the same source.
Data set [3] deals with the molecule itself.

T. maritima encapsulin shell protein (wild type) (T. maritima), sequence (Q9WZP2 whole entry): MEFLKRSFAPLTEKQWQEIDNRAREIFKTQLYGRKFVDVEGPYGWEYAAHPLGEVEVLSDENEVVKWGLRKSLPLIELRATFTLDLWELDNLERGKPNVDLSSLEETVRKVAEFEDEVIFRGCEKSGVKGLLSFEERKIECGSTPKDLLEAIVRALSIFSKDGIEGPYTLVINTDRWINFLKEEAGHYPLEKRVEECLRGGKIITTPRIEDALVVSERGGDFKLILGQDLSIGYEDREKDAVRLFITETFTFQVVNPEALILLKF

In data set [1], “T. maritima encapsulin shell protein (wild type) (from UniProt Q9WZP2 1-265) (natural protein)” displayed a stoichiometry N (subunits per shell) of 60.

B1: T. maritima ferritin-like protein (FLP) cargo (natural protein, UniProt Q9WZP3 1-114, looked up)
chain: MADQYHEPVSELTGKDRDFVRALNSLKEEIEAVAWYHQRVVTTKDETVRKILEHNRDEEMEHAAMLLEWLRRNMPGWDEALRTYLFTDKPITEIEEETSGGSENTGGDLGIRKL
As usually defined, the stoichiometry N is the number of molecules, sites or subunits per partner or assembly. Turning to B1, the FLPs per shell (2D class averages) (FLPs per shell) in data set [2] amounted to 2. The “stoichiometry N” value in data set [3] is 10 subunits.
